Laboratory results taken from patent US20220119517A1 (NANJING SANHOME PHARMACEUTICAL, published 2022).
Substitutions are numbered along the chain they refer to. Like-named read-outs stand apart in the source and are kept apart here.

What was measured:
[1] = target: T1, human Claudin18.1 (CLDN18.1), full length, on cells (human, UniProt P56856 1-261); assay: cellular ELISA, hybridoma supernatant on fixed HEK293-CLDN18.1 cells
T1 construct: HEK293-CLDN18.1 cells carry a fusion with green fluorescent protein (ZsGreen); CHO-K1-CLDN18.1 cells carry pcDNA3.1-CLDN18.1; The cell line is named under assay; also called CLDN18.1-FL; HEK293-CLDN18.1 cells
Procedure: (§1) HEK293-CLDN18.1 and HEK293-CLDN18.2 cells were cultured separately with DMEM complete culture medium containing 10% fetal bovine serum at 37° C., 5% CO₂. When the cells grew to 80%-90% confluency, they were digested with 0.5 mM EDTA-PBS non-trypsin digestion solution at room temperature, and centrifuged at 1000 rpm for 5 minutes, the supernatant was discarded. Resuspended in DMEM complete culture medium, and the cell concentration was adjusted to 6×10⁵ cells/ml. Cells were plated on 96-well cell plates (Corning) pre-coated with polylysine, 100 μl per well, incubated at 37° C., 5% CO₂ for 24 hours, making cells evenly and completely plated on the bottom of the well. The culture supernatant was aspirated, and the cells were fixed with 4% paraformaldehyde at room temperature for 20 minutes, washed 3 times with 200 μl PBS, 2 minutes at each time. The well plates were blocked with 200 μl of 3% BSA-PBS at 37° C. for 1 hour. […] of subclone culture supernatant was taken and added into the well plate, incubated at 37° C. for 1 hour, washed 5 times with PBS. Incubation with HRP-anti mouse IgG+IgM (Jackson) diluted 1:10000 in blocking solution was performed at 37° C. for 1 hour followed by washing 5 times with PBS. 100 μl of TMB one-component color developing solution was added, protected from light at room temperature for 5-10 minutes, terminated with 2M sulfuric acid, and OD450 was read on the microplate reader. The results are shown in Table 3, subclones of which the hybridoma culture supernatant show strong positive binding to CLDN18.2 (that is, the OD value is 50% higher than the OD value of the positive control) include: S3F10C5, S5H3A6, S5H3B6, S5H3D6, S6F10E7, S6H9B8, S6H9C8, C40B10D9, C42B12D10 and C58B11E11. Among these subclones, S5H3A6, S5H3B6, S5H3D6, C40B10D9, C42B12D10 and C58B11E11 show negative binding to CLDN18.1 cells.

[2] = target: T2, human Claudin18.2 (CLDN18.2), full length, on cells (human); assay: cellular ELISA, hybridoma supernatant on fixed HEK293-CLDN18.2 cells
T2 construct: also called CLDN18.2-FL; HEK293-CLDN18.2 cells
Procedure: as §1

[3] = target: T2, human Claudin18.2 (CLDN18.2), full …; assay: cell-based or functional assay
[4] = target: T2, human Claudin18.2 (CLDN18.2), full …; assay: cellular ELISA on fixed HEK293-CLDN18.2 cells
Procedure: HEK293-CLDN18.1 and HEK293-CLDN18.2 cells were resuscitated two weeks in advance, cultured with DMEM complete culture medium containing 10% fetal bovine serum at 37° C., 5% CO₂. When the cells grew to 80%-90% confluency, they were digested with 0.5 mM EDTA-PBS (Sigma) at room temperature, centrifuged at 1000 rpm for 5 minutes, the supernatant was discarded. Cells were resuspended in DMEM complete culture medium, the cell concentration was adjusted to 6×10⁵ cells/ml. Cells were plated on 96-well cell plates (Corning) pre-coated with polylysine at 2.5 μg/well, 100 μl per well, incubated at 37° C., 5% CO₂ for 24 hours, making cells evenly and completely plated on the bottom of the well. The supernatant was aspirated, and the cells were fixed with 4% paraformaldehyde at room temperature for 20 minutes, washed 3 times with 200 μl PBS, 2 minutes at each time. The well plates were blocked with 200 μl of 3% BSA-PBS at 37° C. for 1 hour. Each chimeric antibody was diluted with 3% BSA-PBS to a concentration of 6 μg/ml, and diluted in a 6-fold gradient to a total of 7 concentrations. At the same time, IMAB362-similar-hG1 diluted in the same concentration gradient as the positive control, and human IgG1, kappa isotype control antibody (hereinafter referred to as Isotype, provided by CrownBio (Taicang) Co., Ltd.) as the negative control were added to HEK293-CLDN18.2 and HEK293-CLDN18.1 cell plates, respectively. The cells were incubated at 37° C. for 1 hour, washed 5 times with PBS. Incubation with HRP-anti human IgG (Jackson) diluted 1:10000 in blocking solution was performed at 37° C. for 1 hour followed by washing 5 times with PBS. 100 μl of TMB one-component color developing solution was added, protected from light at room temperature for 5-10 minutes, terminated with 50 μl of 2M sulfuric acid, OD450 was read on the microplate reader. Data processing: the original data was put into GraphPad 5.0 software for plotting and calculation.

[5] = target: T1, human Claudin18.1 (CLDN18.1), full …; assay: FACS on CHO-K1-CLDN18.1 cells
Text: Human gastric cancer cells NUGC4 and stably transfected cells CHO-K1-CLDN18.1 (prepared in Example 5) were used respectively, to verify the specificity and affinity of the anti-CLDN18.2 antibodies above at the cellular level by FAGS technology. After antibody affinity maturation and screening in vitro, each antibody can bind to the CLDN18.2 target on NUGC4 cells, but not to CHO-K1-CLDN18.1 cells, as compared with the original 3CHI antibody.

[6] = target: T2, human Claudin18.2 (CLDN18.2), full …; assay: cell-based or functional assay; remark: listed apart in the source

B1: B4B10G3 (antibody, V domains shown)
VH: QIQLVQSGPELKKPGETVKISCKASGYTFTNYGMNWVKQAPGKGLKWMGWINTYTGEPTYADDFKGRFAFSLETSASTAYLQINNLKNEDMATYFCARDGQLGLRFAYWGQGTLVTVSA
VL: NIMMTQSPSSLAVSAGEKVTMSCKSSQSVLYSSNQKNYLAWYQQKPGQSPKLLIYWASTRESGVPDRFTGSGSGTDFTLTISSVQAEDLAVYYCHQYLSSRTFGGGTKLEIK
notes: Hybridoma supernatant antibody; murine IgG2b, kappa; also called subclone B4B10G3
B1 gave an OD450 [1] of 0.2 OD and an OD450 [2] of 0.343 OD.

B2: 5M (antibody, human IgG1, kappa)
heavy: QVQLQQPGAELVRPGASVKLSCKASGYTFTSYWINWVKQRPGQGLEWIGNIYPSDSYTNYNQKFKDKATLTVDKSSSTAYMQLSSPTSEDSAVYYCTRSWRGNSFDYWGQGTTLTVSSASTKGPSVFPLAPSSKSTSGGTAALGCLVKDYFPEPVTVSWNSGALTSGVHTFPAVLQSSGLYSLSSVVTVPSSSLGTQTYICNVNHKPSNTKVDKKVEPKSCDKTHTCPPCPAPELLGGPSVFLLPPKPKDTLMISRTPEVTCVVVDVSHEDPEVKFNWYVDGVEVHNAKTKPPEEQYNSTLRVVSILTVLHQDWLNGKEYKCKVSNKALPAPIEKTISKAKGQPREPQVYTLPPSRDELTKNQVSLTCLVKGFYPSDIAVEWESNGQPENNYKTTPLVLDSDGSFFLYSKLTVDKSRWQQGNVFSCSVMHEALHNHYTQKSLSLSPGK
light: DIVMTQSPSSLTVTAGEKVTMSCKSSQSLLNSGNQKNYLTWYQQKPGQPPKLLIYWASTRESGVPDRFTGSGSGTDFTLTISSVQAEDLAVYYCQNDYSYPFTFGSGTKLEIKRTVAAPSVFIFPPSDEQLKSGTASVVCLLNNFYPREAKVQWKVDNALQSGNSQESVTEQDSKDSTYSLSSTLTLSKADYEKHKVYACEVTHQGLSSPVTKSFNRGEC
For B2, the “ADCC activity by luciferase labeling, EC50” value [3] was 0.44 nM and the “ADCC activity by luciferase labeling, Top” value [3] was 98400.

B3: C40B10D9 (antibody, mouse IgM, V domains shown)
VH: QVQLKESGPGLVAPSQSLSITCTVSGFSLTSYGVSWVRQPPGKGLEWLGVIWGDGSTNYHSALISRLSISKDNSKSQVFLKLNSLQTDDTATYYCAGGLRLWFAYWGQGTLVTVSA
VL: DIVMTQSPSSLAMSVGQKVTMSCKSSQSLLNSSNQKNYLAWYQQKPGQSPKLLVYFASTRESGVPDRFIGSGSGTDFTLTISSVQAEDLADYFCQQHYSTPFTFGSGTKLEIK
notes: Hybridoma supernatant antibody; murine IgM, kappa; also called subclone C40B10D9
For B3, the OD450 [1] was 0.114 OD, the binding result [1] was “no binding” and the OD450 [2] was 0.664 OD.

B4: S5H3B6 (antibody, mouse IgM, V domains shown)
VH: EVKLVESGGGLVQPGGSLKLSCAASGFTFSDYGMAWVRQAPRKGPEWVAFISNLAYSIYYADTVTGRFTISRENAKNTLYLEMSSLRSEDTAMYYCARLGYGNSFAYWGQGTLVTVSA
VL: DIVMTQSPSSLTVTAGEKVTMSCKSSQSLLNSGNQKNYLTWYQQKPGQPPKLLIYWASTRESGVPDRFTGSGSGTDFTLTISSVQAEDLAVYYCQNDYSYPLTFGAGTKLELK
notes: Hybridoma supernatant antibody; murine IgM, kappa; also called subclone S5H3B6
In the case of B4, the OD450 [1] is reported as 0.152 OD, the binding result [1] is reported as “no binding” and the OD450 [2] is reported as 1.38 OD.

B5: 19CHI (antibody, V domains shown)
VH: QVQLQQSGAELVKPGASVKMSCKASGYTFTTYPIEWMKQNHGKSLEWIGNFHPYNDDTKYNEKFKGKATLTVEKSSSTVYLELSRLTSDDSAVYYCARRGYGSSYAMDYWGQGTSVTVSS
VL: B4 VL with T12S, T14S, T40A, W56G, Y98H, L102Y, A106G, L112I
notes: Human-murine chimeric antibody with the constant region of human IgG1; also called chimeric antibody of C42B12D10
Binder B5 has an EC50 [4] of 29.9 nM.

B6: C58B11E11 (antibody, mouse IgG2c, V domains shown)
VH: EVQLQQSGPELVKPGASVKMSCKASGYTFTDYNMHWVKQSHGKSLEWIGYINPNNGGTSYNQKFKGKATLTVNKSSSTAYMELRSLTSEDSAVYYCARIYYGNSFAYWGQGTLVTVSA
VL: B4 VL with L102F, A106S, L112I
notes: Hybridoma supernatant antibody; murine IgG2c, kappa; also called subclone C58B11E11
B6 was tested, and the OD450 [2] was 0.671 OD.

B7: 17CHI (antibody, V domains shown)
VH: B6 VH
VL: B4 VL with L102F, A106S, L112I
notes: Human-murine chimeric antibody with the constant region of human IgG1; also called chimeric antibody of C58B11E11
In the case of B7, the “MFI (CLDN18.1)” value [5] is reported as 14500 MFI and the EC50 [4] is reported as 2.44 nM.

B8: C42B12D10 (antibody, mouse IgM, V domains shown)
VH: B5 VH
VL: B4 VL with T12S, T14S, T40A, W56G, Y98H, L102Y, A106G, L112I
notes: Hybridoma supernatant antibody; murine IgM, kappa; also called subclone C42B12D10
In the case of B8, the OD450 [2] is reported as 0.76 OD.

B9: S6H9B8 (antibody, mouse IgG3, V domains shown)
VH: QVQLQQSGAELARPGASVKLSCKASGYTFTSYGISWVKQRTGQGLEWIGEIYPRSGNTYYNEKFKGKATLTADKSSSTAYMELRSLTSEDSAVYFCASLAWFAYWGQGTLVTVSA
VL: DIVMTQAAPSVPVTPGESVSISCRSSKSLLHSNGNTYLYWFLQRPGQSPQLLIYRMSNLASGVPDRFSGSGSGTAFTLRISRVEAEDVGVYYCMQHLEYPYTFGGGTKLEIK
notes: Hybridoma supernatant antibody; murine IgG3, kappa; also called subclone S6H9B8
For B9, the OD450 [1] was 1.5 OD and the OD450 [2] was 2.35 OD.

B10: Hu330-2 (antibody, V domains shown)
VH: EVQLVESGGGLVQPGGSLRLSCAASGFGFSDYGMAWVRQAPGKGLEWVSFISNSAYSIYYADTVTGRFTISRDNAKNSLYLQMNSLRAEDTAVYYCARLGRGNSFAYWGQGTLVTVSS
VL: EIVMTQSPPTLSLSPGERVTLSCKSSQSLLNSGNQKNYLTWYQQKPGQAPRLLIYWGSTRESSIPARFSGSGSGTDFTLTISSLQPEDLAVYYCQNELFYPLTFGQGTKLEIK
B10 was tested, and the “ADCC activity by luciferase labeling, EC50” value [6] was 0.11 nM and the “ADCC activity by luciferase labeling, Top” value [6] was 65100.
